The values below come from PMC11503520.

Where “and” joins values, the source holds several entries; their conditions need not be identical. Identical values can stand only once.

In experiment [1] the target is AAV8 viral protein 3 (VP3) (adeno-associated virus serotype 8). Put plainly: CE-SDS of purified capsids; AAV8-H4C1, not separated into EP and FP by DG-UC: ratio of the mixture; VP3 is the sum of VP3 and VP3 clip.
For experiment [2] the target is unchanged. The experiment can be described thus: native MS; orbitrap-based CDMS of full particles (FP); mass of the genome subtracted from the mass distribution of FP, then VP stoichiometry of the capsid of FP estimated as for EP.
Experiment [3] shares this target. Put plainly: CE-SDS of purified capsids; empty particles (EP) separated by DG-UC, denatured with SDS and mercaptoethanol, 60 °C 3 min; VP components detected at 214 nm; VP3 is the sum of VP3 and VP3 clip.
The target is the same in experiment [4]. Put plainly: native MS; orbitrap-based CDMS of empty particles (EP) of AAV8-H4C1, AAV8-FIXp and AAV8-FIXp hFIX mini-intron after buffer exchange into 200 mM ammonium acetate; average VP stoichiometry estimated from the mass distribution by assigning integer stoichiometries (0-60 for each VP) and weighted averaging.
Experiment [5] has the same target. The experiment can be described thus: CE-SDS of purified capsids; full particles (FP) separated by DG-UC, denatured with SDS and mercaptoethanol, 60 °C 3 min; VP components detected at 214 nm; VP3 is the sum of VP3 and VP3 clip.

As for “AAV8 viral protein 1 (VP1) (natural protein)”, the VP stoichiometry VP1: VP2: VP3 (copies of VP1 in the capsid) in experiment [1] was 5.1; in experiment [2], 1.7 and 3.4 and 1.8; in experiment [3], 4.9 and 5; in experiment [4], 2.5 and 2.6; in experiment [5] it was 4.6 and 4.7.

As to “AAV8 viral protein 2 (VP2) (natural protein)”, the VP stoichiometry VP1: VP2: VP3 (copies of VP2 in the capsid) in experiment [1] is 7.8; in experiment [2], 6.6 and 12.3 and 7.1; in experiment [3], 9.7 and 9.6; in experiment [4], 9.4; in experiment [5] it was 9.3 and 7.5.

Take “AAV8 viral protein 3 (VP3) (natural protein)”: the VP stoichiometry VP1: VP2: VP3 (copies of VP3 in the capsid) in experiment [1] is 47; in experiment [2], 51.7 and 44.2 and 51; in experiment [3] it was 45.4; in experiment [4] it was 48; in experiment [5], 46.1 and 47.8.
